Source: article doi:10.1101/2025.07.31.667833

Target: Spef1 K204Q/K206Q/R207Q/R215Q/R218Q mutant (full-length) (mouse) (UniProt Q99JL1)
Experiment: SEC-MALS

- stoichiometry N: 2
Substance: Spef1 K204Q/K206Q/R207Q/R215Q/R218Q mutant (full-length) (from UniProt Q99JL1 1-234) (natural protein)
